{
  "source": "patent US20140274782A1",
  "about": "(Stanford University, published 2014)",
  "binders": {"B1": {"name": "3× Flag-3×MBT (designed binder)", "chain": "EEWSSSQPATGEKKECWSWESYLEEQKAITAPVSLFQDSQAVTHNKNGFKLGMKLEGIDPQHPSMYFILTVAEVCGYRLRLHFDGYSECHDFWVNANSPDIHPAGWFEKTGHKLQPPKGYKEEEFSWSQYLRSTRAQAAPKHLFVSQSHSPPPLGFQVGMKLEAVDRMNPSLVCVASVTDVVDSRFLVHFDNWDDTYDYWCDPSSPYIHPVGWCQKQGKPLTPPQDYPDPDNFCWEKYLEETGASAVPTWAFKVRPPHSFLVNMKLEAVDRRNPALIRVASVEDVEDHRIKIHFDGWSHGYDFWIDADHPDIHPAGWCSKTGHPLQPPLGPREPSSASPGG", "notes": "also called Flag-tagged 3×MBT; 3xFlag-3xMBT; not shown: made by PreScission cleavage of GST-3× Flag-3×MBT"}},
  "assay_in_all_cases": "ProtoArray, GST-treated control array;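 also: human protein microarray (about 9500 recombinant proteins) incubated overnight with GST alone plus SAM cofactor as the negative control for G9a SET domain methylation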",
  "key": {"[1]": {"biological_target": "T1, C2orf43-chromosome 2 open reading frame 43 (C2orf43) (human, UniProt Q9H6V9 1-325, limits assumed)", "T1 sequence (looked up)": "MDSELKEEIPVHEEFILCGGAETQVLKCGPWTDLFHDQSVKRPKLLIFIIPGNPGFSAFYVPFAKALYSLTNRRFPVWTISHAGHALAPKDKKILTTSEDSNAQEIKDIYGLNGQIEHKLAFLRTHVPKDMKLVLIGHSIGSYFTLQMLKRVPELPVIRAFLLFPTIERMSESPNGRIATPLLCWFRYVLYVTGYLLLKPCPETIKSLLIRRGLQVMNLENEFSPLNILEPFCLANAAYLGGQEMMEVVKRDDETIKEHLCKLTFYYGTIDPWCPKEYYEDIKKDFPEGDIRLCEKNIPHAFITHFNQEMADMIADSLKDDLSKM", "experimental": "(§1) Briefly, a ProtoArray (Invitrogen, version 5.0) was incubated overnight with 50 μg of GST or recombinant GSTtagged G9a SET domain and the cofactor SAM.\n(§2) Arrays were analyzed using GenePix Pro 6.1 software (Molecular Devices) and feature values were assigned to proteins using the array list provided by Invitrogen. We designated the following criteria for “hits”: GST array signal-to-noise ratio (SNR) less than or equal to 1.5, G9a array SNR greater than or equal to 10, and a difference between the G9a array SNR and the GST array SNR of greater than or equal to 12. Hits were individually visually validated. Proteins were removed from the list of potential substrates if irregular array features appeared to interfere with the array spots or SNR calculations.\n(§3) Protein arrays bearing almost 9500 recombinant human proteins were methylated using GST-tagged recombinant G9a SET domain or GST alone as a control as shown in FIG. 4. […] Results were filtered for proteins scoring a GST array signal-to-noise ratio (SNR) less than or equal to 1.5, a G9a array SNR greater to or equal to 10, and a difference between the G9a and GST SNRs of greater than or equal to 12. Subsequent proteins were individually inspected for irregular array features."}, "[2]": {"biological_target": "T2, CNTD1-Cyclin N-terminal domain-containing protein 1 (human, UniProt Q8N815 1-330)", "T2 sequence": "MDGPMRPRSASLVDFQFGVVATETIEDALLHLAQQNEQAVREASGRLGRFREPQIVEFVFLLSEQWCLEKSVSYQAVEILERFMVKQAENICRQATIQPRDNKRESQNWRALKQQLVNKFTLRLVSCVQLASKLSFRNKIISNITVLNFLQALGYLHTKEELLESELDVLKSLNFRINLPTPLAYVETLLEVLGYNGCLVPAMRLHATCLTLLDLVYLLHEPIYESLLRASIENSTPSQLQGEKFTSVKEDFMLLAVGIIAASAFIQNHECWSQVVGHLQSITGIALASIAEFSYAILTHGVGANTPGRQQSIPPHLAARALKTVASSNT", "experimental": "as §1, §2, §3"}, "[3]": {"biological_target": "T3, SSR4-signal sequence receptor, delta (translocon-associated protein delta) (SSR4) (human, UniProt P51571 24-173, limits assumed)", "T3 sequence (looked up)": "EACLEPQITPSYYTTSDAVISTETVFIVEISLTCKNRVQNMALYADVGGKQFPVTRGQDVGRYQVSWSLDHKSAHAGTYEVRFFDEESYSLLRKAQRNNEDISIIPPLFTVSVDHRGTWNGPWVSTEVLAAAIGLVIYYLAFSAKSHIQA", "experimental": "as §1, §2, §3"}, "[4]": {"biological_target": "T4, CDK5RAP3-CDK5 regulatory subunit-associated protein 3 (human, UniProt Q96JB5 1-506, limits assumed)", "T4 sequence (looked up)": "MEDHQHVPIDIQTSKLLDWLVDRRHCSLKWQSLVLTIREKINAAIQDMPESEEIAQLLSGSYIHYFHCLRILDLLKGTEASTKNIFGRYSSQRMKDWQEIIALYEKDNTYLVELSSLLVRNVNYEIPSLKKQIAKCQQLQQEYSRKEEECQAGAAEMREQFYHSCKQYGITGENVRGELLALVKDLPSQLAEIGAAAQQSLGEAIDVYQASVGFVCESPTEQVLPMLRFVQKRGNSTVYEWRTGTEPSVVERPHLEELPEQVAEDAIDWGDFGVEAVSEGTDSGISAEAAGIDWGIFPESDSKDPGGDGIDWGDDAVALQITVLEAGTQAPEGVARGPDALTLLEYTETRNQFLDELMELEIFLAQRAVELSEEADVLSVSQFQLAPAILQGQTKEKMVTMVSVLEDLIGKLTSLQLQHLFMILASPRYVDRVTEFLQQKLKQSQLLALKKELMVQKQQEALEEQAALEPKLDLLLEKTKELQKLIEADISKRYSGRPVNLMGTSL", "experimental": "as §1, §2, §3"}, "[5]": {"biological_target": "T5, MGC10433-RNA-binding protein 42 (human, UniProt Q9BTD8 1-480, limits assumed)", "T5 sequence (looked up)": "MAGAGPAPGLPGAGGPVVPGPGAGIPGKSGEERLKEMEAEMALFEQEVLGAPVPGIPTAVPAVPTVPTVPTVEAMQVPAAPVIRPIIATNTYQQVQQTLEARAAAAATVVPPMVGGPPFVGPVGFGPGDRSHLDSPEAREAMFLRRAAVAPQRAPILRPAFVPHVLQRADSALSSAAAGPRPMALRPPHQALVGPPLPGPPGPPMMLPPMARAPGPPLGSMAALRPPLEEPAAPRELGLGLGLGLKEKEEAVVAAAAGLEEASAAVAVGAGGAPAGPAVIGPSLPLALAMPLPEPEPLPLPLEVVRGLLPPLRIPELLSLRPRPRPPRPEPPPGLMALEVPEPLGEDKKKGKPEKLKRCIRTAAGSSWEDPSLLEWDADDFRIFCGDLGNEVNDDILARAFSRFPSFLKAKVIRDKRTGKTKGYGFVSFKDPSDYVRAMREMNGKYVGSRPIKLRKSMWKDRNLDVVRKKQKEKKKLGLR", "experimental": "as §1, §2, §3"}, "[6]": {"biological_target": "T6, CD79A-B-cell antigen receptor complex-associated protein alpha-chain (human, UniProt P11912 33-226, limits assumed)", "T6 sequence (looked up)": "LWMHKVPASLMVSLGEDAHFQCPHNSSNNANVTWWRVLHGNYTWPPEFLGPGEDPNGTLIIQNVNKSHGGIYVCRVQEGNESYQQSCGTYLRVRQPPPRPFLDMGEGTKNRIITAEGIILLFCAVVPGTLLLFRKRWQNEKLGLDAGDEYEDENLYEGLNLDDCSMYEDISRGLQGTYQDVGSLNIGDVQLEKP", "experimental": "as §1, §2, §3"}, "[7]": {"biological_target": "T7, SNFT-Jun dimerization protein p21SNFT (SNFT) (human, UniProt Q9NR55 1-127)", "T7 sequence (looked up)": "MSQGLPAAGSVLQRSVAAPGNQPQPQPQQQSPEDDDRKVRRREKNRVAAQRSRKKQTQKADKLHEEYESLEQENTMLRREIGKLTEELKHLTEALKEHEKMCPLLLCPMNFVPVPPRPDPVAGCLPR", "experimental": "as §1, §2, §3"}, "[8]": {"biological_target": "ARL6IP1-ADP-ribosylation factor-like 6 interacting protein 1 (ARL6IP1) (human, UniProt Q15041 1-203, limits assumed)", "sequence (Q15041 whole entry)": "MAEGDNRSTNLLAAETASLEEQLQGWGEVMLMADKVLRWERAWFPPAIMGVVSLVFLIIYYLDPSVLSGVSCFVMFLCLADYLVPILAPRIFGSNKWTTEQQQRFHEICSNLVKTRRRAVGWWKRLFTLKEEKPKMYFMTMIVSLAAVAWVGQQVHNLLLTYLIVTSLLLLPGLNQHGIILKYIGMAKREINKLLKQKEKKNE", "experimental": "as §1, §2, §3"}},
  "data": [
    {"binder": "B1", "values": [
      {"measurement": "GST Average SNR", "setting": "[1]", "value": -0.147},
      {"measurement": "GST Average SNR", "setting": "[2]", "value": 0.567},
      {"measurement": "GST Average SNR", "setting": "[3]", "value": 1.33},
      {"measurement": "GST Average SNR", "setting": "[4]", "value": -0.34},
      {"measurement": "GST Average SNR", "setting": "[5]", "value": -0.357},
      {"measurement": "GST Average SNR", "setting": "[6]", "value": -0.746},
      {"measurement": "GST Average SNR", "setting": "[7]", "value": 1.05},
      {"measurement": "GST Average SNR", "setting": "[8]", "value": 1.05}
    ]}
  ]
}
